Results on one molecule are retold here after US20240425572A1 (REGENXBIO, published 2024).

This test addresses T1, fragment of the LEM peptide having the amino acid sequence of LEMPSSLMLEVP (SEQ ID NO: 2).
T1 peptide: LEMPSSLMLEVP
Nature of the test: MSD binding assay (format for the fragment not detailed). As to the method: LEM peptide specific rabbit polyclonal and monoclonal antibodies were produced using standard laboratory technologies. Binding affinity of the antibodies was assessed using MSD experiment performed according to the manufacturer's protocols. MSD plates were coated with 1 mg/ml of peptide in PBS and blocked with casein in PBS. Anti-rabbit sulfo-tagged antibody was used as the detection agent. Antibody binding specificity was assessed using control reactions that included the target peptide to inhibit binding. […] None of the antibodies tested can bind to a fragment of the LEM peptide having the amino acid sequence of […] (SEQ ID NO: 2).

B1: 130D2-1 (antibody, V domains shown)
VH: QSLAESGGRLVTPGTPLTLTCTVSGVDLSYYPMTWVRQAPGKGLEYIGIILHNGTSCYARWARGRFTISKTSTTVELRITSPTTEDTATYFCARASVASIVGSSDIWGPGTLVTVSS
VL: LVLTQTPSSVSAAVGGTVTINCQSSQSVYKNSALSWYQQKPGQPPKLLIYGASTLASGVPSRFSGNGSGTQFTLTISGVQCADAATYYCTGAINDEIHAFGGGTEVVVR
notes: Rabbit monoclonal IgG; also called 130D2-1 monoclonal anti-LEM antibody; anti-LEM mAb
For B1, the binding result was “no binding”.
